Measured values reported in US20240207432A1 (BIOSION, published 2024).

T1: human TROP2-his protein (human, UniProt P09758 27-274)
T1 construct: Biotin-labelled in the ELISAs, unlabelled analyte in Biacore; also called biotin-labeled human TROP2-his protein; biotin human Trop2-his
T1 sequence: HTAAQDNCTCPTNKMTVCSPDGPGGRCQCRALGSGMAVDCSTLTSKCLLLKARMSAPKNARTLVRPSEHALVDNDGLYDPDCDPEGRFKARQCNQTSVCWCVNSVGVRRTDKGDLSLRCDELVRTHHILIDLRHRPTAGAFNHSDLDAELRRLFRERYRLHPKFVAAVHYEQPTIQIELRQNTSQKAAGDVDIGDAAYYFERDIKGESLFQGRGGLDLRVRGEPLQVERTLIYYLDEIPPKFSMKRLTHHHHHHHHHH

T2: cynomolgus TROP2-his protein (cynomolgus monkey, UniProt P09758 27-272 (human entry), limits assumed)
T2 construct: no cleavage site is stated; also called Cynomolgus monkey TROP2-his protein; monkey TROP2
T2 chain: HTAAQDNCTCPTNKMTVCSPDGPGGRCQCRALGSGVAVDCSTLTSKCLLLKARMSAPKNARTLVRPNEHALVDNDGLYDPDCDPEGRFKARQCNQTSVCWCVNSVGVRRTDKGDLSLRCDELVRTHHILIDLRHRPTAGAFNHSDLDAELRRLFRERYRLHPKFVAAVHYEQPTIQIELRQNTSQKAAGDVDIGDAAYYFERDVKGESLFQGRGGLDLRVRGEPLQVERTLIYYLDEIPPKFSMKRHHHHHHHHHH

B1: benchmark (in house prepared sacituzumab) (antibody, human IgG1, kappa, V domains shown)
VH: SVQLQQSGSELKKPGASVKVSCKASGYTFTNYGMNWVKQAPGQGLKWMGWINTYTGEPTYTDDFKGRFAFSLDTSVSTAYLQISSLKADDTAVYFCARGGFGSSYWYFDVWGQGSLVTVSS
VL: DIQLTQSPSSLSASVGDRVSITCKASQDVSIAVAWYQQKPGKAPKLLIYSASYRYTGVPDRFSGSGSGTDFTLTISSLQPEDFAVYYCQQHYITPLTFGAGTKVEIKR
notes: also called BM; BM1
B2: mouse antibody C1B3B12D2 (antibody, V domains shown)
VH: QVQLQQSGPELVRPGTSVKMSCKAAGYTFTKFWIGWVKQRPGHGLEWIGNIYPGGAYINYNENFKGKATLTADTFSSTAYMQLNSLTSADSAIYYCAREGSSGYWGQGTTLTVSS
VL: DIVMTQSPSSLTVTAGEKVTLSCKCSQSLLNSGTQENYLTWYQQKPGQPPKMLIYWASIREPGVPDRFTGSGSGTDFTLTINNVQAEDLAVYYCQHDYSYPFTFGSGTKLEIK
notes: Mouse monoclonal IgG purified from hybridoma supernatant
B3: huA1E4F7D4-V16 (antibody, human IgG1, kappa, V domains shown)
VH: QVQLVQSGAEVKKPGASVKVSCKASGYSFTTHWIHWVRQAPGQGLEWIGTIFPSNAYAVYNQKFRDRATMTADTSISTAYIELSRLRSDDTAVYYCARASYFDYWGQGTTVTVSS
VL: EIVLTQSPATLSLSPGERATLSCRASQNIGTSIHWFQQKPGGAPRLLIKYASESISGIPSRFSGSGSGTDFTLTISSLEPEDFAVYYCQHSHSWPFTFGQGTKLEIKR
notes: Positions of the X residues are given in the claims; also called humanized antibody huA1E4F7D4-V16

Experiments:
human TROP2-his protein [1] = biological target: T1, human TROP2-his protein; assay: epitope grouping ELISA, 15 ug/ml antibody premixed with biotin human TROP2-his; competitor: coated huA1E4F7D4-V16
Description: (§1) Firstly, capture ELISA was performed to determine the concentration of biotin-labeled human Trop2 proteins appropriate for the epitope binning test. […] The plates were washed for 4 times, added with 100 μl/well of serially diluted biotin human Trop2-his proteins (SEQ ID NO: 67) in PBST with 2.5% non-fatty milk (starting from 1.3 μg/ml with a 5-fold serial dilution), and incubated for 40 min at 37° C. Then the plates were washed for 4 times and added with 100 μl/vell of HRP-streptavidin (Jackson Immuno Research, Cat #016-030-084). The plates were incubated for another 40 min at 37° C. Then the plates were washed again, and 100 μl/well TMB was added for color development at RT for 15 min followed by quenching with 50 μl 1M H₂SO₄. The OD values at 450 nm were read.
(§2) With the appropriate concentration determined above, epitope grouping ELISA was performed. […] ELISA plates were washed once with wash buffer (PBS+0.05% v/v Tween-20, PBST) and then blocked with 200 μl blocking buffer (5% w/w non-fatty milk in PBST) for 2 hours at 37° C. […] The mixtures were incubated at room temperature for 40 minutes. After plate washing for 4 times, the antibody/biotin-TROP2-his protein mixtures were added to the antibody coated plates, 100 μl per well, and incubated for another 40 min at 37° C. Then 100 μl/well of HRP-streptavidin was added and incubated for 40 min. Then OD₄₅₀ values were determined and the cross-competition capability was calculated (cross-competition capability of antibody X (%)=(OD₄₅₀ of Antibody X-[…] of Blank)/(OD₄₅₀ of no mAb-OD₄₃₀ of Blank)*100%).

human TROP2-his protein [2] = biological target: T1, human TROP2-his protein; assay: epitope grouping ELISA, 15 ug/ml antibody premixed with biotin human TROP2-his; competitor: coated BM2
Description: as §1, §2

human TROP2-his protein [3] = biological target: T1, human TROP2-his protein; assay: epitope grouping ELISA, 15 ug/ml antibody premixed with biotin human TROP2-his; competitor: coated BM1
Description: as §1, §2

human TROP2-his protein [4] = biological target: T1, human TROP2-his protein; assay: SPR Biacore, antibody captured on anti-human IgG CM5 chip, TROP2-his analyte
Description: (§3) Un-reacted moieties on the chip (biosensor) surface were blocked with ethanolamine. […] The antigen-antibody association kinetics was followed for 2 minutes and the dissociation kinetics was followed for 10 minutes. The association and dissociation curves were fit to a 1:1 Langmuir binding model using BIAcore evaluation software.

[5] = biological target: T2, cynomolgus TROP2-his protein; assay: as above
Description: as §3

[6] = biological target: T2, cynomolgus TROP2-his protein; assay: indirect ELISA, cynomolgus TROP2-his coated at 2 ug/mL, OD(450-630)
Description: The anti-TROP2 antibodies of the disclosure were tested for their cross-reaction with cynomolgus TROP2 proteins. Briefly, 96-well micro plates were coated with 100 μl 2 μg/ml cynomolgus TROP2-his proteins (prepared in-house with SEQ ID NO: 70) in carbonate/bicarbonate buffer (pH 9.6) overnight at 4° C. ELISA plates were washed once with wash buffer (PBS+0.05% v/v Tween-20, PBST) and then blocked with 200 μl/well blocking buffer (5% w/v non-fatty milk in PBST) for 2 hours at 37° C. […] After a final wash, plates were incubated with 100 μl/well TMB (Innoreagents) at room temperature. The reaction was stopped 3-10 minutes later at room temperature with 50 μl/well 1M H₂SO₄, and the absorbance of each well was read on a microplate reader using dual wavelength mode with 450 nm for TMB and 630 nm as the reference wavelength. The OD (450-630) values were plotted against antibody concentration. Data was analyzed using Graphpad Prism software and EC₅₀ values were reported.

Binder | OD450 (human TROP2-his protein [1]) | OD450 (human TROP2-his protein [2]) | OD450 (human TROP2-his protein [3]) | Kd (human TROP2-his protein [4]) | Kd [5] | EC50 [6] | EC50 (read off the curve) [6] | koff (human TROP2-his protein [4]) | kon (human TROP2-his protein [4]) | koff [5] | kon [5]
B1 | 1.61 OD450 | 0.031 OD450 | 0.048 OD450 | 983 pM | 529 pM | 385 pM | – | – | – | – | –
B2 | – | – | – | – | – | – | ~600 pM | – | – | – | –
B3 | 0.027 OD450 | 1.92 OD450 | 1.42 OD450 | 183 pM | 132 pM | – | – | 0.000195 s⁻¹ | 1.06e+06 M⁻¹ s⁻¹ | 0.000164 s⁻¹ | 1.25e+06 M⁻¹ s⁻¹
